From patent publication US20120220540A1, “SYNBODIES TO AKT1” (ARIZONA BOARD OF REGENTS FOR AND ON BEHALF OF ARIZONA STATE …, priority 2009, published 2012)
Each block holds one molecule with its values, some of them ahead of it. Square brackets hold non-standard residues; d marks the D form. Ends that are not written are not given here. * marks the point of attachment. Biotin = O=C1N[C@H]2[C@H](CS[C@H]2CCCCC(=O)*)N1; Oct = octanoic acid spacer; oct = octanoic acid spacer; StBu = CC(C)(C)S*

Key:
AKT1 [1] = molecular target: AKT1 (Homo sapiens, UniProt P31749); test: KD of synbody variants (Tables 2 and 4); format: binding; design: key to KD (nM): n.b. = no binding
AKT1 (Homo sapiens, UniProt P31749), sequence (P31749 whole entry): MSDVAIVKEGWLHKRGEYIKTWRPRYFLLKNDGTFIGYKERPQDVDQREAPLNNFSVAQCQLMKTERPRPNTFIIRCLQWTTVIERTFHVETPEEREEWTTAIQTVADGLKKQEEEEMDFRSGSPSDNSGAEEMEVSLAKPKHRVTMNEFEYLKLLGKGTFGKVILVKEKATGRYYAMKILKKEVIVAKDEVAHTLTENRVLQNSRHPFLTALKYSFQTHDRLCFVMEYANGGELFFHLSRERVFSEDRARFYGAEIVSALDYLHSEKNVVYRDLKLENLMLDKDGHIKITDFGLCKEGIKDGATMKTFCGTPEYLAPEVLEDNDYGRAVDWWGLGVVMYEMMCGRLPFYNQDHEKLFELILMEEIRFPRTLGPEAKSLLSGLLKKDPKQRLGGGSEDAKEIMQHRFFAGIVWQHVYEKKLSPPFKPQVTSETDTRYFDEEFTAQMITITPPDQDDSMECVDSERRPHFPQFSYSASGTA
Procedure: Selection of screening of amino acid variants has been described above. Variants including modifications of conjugation chemistry, linker, spacers or adjunct moieties can be screened for retention of binding to AKT1. In some methods, either the AKT1 or the synbody is immobilized. Optionally binding of a variant is tested in competition with the lead AKT1 synbody discussed above. In one format, AKT1 is immobilized to a support and synbody variants are tested for binding by surface plasmon resonance.
The following synbodies have the same peptides as the lead synbody and are synthesized off of a lysine core but include the addition of different functional groups synthesized between the C-terminus of the peptide and the amine groups of the lysine scaffold (Table 2). Synbodies were conjugated with either a C-terminal cysteine protected against disulfide formation using a sulfo-tert-butyl group, or with different biotin-conjugated lysines where the spacer between the lysine and the backbone varied. For example, in synbody 5 the biotin was attached to the amino group of the side chain, synbody 6 used a caproic acid spacer, while synbody 7 used an eleven-unit polyethylene glycol spacer.
The following mutant forms of the lead peptide have been made in which either one or more amino acids are substituted or the orientation of the peptides on the linker is reversed (Table 4).

AKT2 [2] = molecular target: AKT2 (Homo sapiens, UniProt P31751); test: Immunoprecipitation of purified AKT2 from cell lysate with synbody (Western blot); format: binding; details: immunoprecipitate of purified 250 ng AKT2 from 500 mg of cell lysate
AKT2 (Homo sapiens, UniProt P31751), sequence (P31751 whole entry): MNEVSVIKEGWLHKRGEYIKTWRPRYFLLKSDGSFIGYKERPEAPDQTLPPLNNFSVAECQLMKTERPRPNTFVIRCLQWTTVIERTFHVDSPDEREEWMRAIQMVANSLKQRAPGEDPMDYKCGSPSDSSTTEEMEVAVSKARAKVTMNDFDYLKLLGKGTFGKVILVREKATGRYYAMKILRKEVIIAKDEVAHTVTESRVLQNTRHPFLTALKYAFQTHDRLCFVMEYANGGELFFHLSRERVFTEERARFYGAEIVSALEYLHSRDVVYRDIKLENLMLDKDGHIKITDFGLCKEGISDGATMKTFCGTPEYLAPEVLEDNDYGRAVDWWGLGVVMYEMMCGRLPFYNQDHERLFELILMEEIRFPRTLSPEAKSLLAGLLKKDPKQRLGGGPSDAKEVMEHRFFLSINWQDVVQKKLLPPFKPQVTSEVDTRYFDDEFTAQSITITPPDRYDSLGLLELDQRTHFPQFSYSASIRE
Procedure: (§1) The synbody was tested for binding to AKT1 and in some experiments, AKT2 and AKT3.

AKT3 [3] = molecular target: AKT3 (Homo sapiens, UniProt Q9Y243); test: Immunoprecipitation of purified AKT3 from cell lysate with synbody (Western blot); format: binding; details: immunoprecipitate of purified 250 ng AKT3 from 500 mg of cell lysate
AKT3 (Homo sapiens, UniProt Q9Y243), sequence (Q9Y243 whole entry): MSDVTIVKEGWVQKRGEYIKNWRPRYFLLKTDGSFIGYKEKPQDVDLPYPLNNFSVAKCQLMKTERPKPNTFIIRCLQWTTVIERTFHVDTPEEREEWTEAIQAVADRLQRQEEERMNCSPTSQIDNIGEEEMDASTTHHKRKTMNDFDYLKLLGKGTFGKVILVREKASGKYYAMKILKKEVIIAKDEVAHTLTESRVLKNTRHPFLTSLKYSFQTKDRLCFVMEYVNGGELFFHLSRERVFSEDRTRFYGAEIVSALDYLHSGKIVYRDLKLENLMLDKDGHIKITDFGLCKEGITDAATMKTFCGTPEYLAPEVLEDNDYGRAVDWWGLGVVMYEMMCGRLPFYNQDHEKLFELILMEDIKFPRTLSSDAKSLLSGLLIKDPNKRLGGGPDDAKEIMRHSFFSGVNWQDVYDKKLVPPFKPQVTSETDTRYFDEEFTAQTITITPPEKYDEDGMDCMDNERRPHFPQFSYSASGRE
Procedure: as §1

AKT1 [4] = molecular target: T1, AKT1 (human, UniProt P31749 1-480); test: method not stated (Table 2)
T1 construct: also called human AKT1; AKT1_HUMAN
T1 sequence (P31749 whole entry): as the sequence (P31749 whole entry) above

AKT1 [5] = molecular target: T1, AKT1; test: SPR, 12.5 and 6.25 nM synbody injected over AKT1 surface, 1:1 kinetic fit; SPR, synbody injected over AKT1 surface, 1:1 kinetic fit
Procedure: as §1

AKT2 [6] = molecular target: AKT2 (human, UniProt P31751 1-481); test: immunoprecipitation of 250 ng purified AKT2 from cell lysate with the synbody, Western blot
AKT2 (human, UniProt P31751 1-481), sequence (P31751 whole entry): as the sequence (P31751 whole entry) above
Procedure: as §1

AKT1 [7] = molecular target: T1, AKT1; test: SPR, synbody at 12.5 and 6.25 nM injected over immobilized AKT1, 1:1 kinetic fit
Procedure: as §1

AKT3 [8] = molecular target: AKT3 (human, UniProt Q9Y243 1-479, limits assumed); test: immunoprecipitation of 250 ng purified AKT3 from cell lysate with the synbody, Western blot
AKT3 (human, UniProt Q9Y243 1-479, limits assumed), sequence (Q9Y243 whole entry): as the sequence (Q9Y243 whole entry) above
Procedure: as §1

AKT1 [9] = molecular target: T1, AKT1; test: pull-down of S35-labeled AKT1 with synbody immobilized via biotin on magnetic beads, 1:1 fit; pull-down of S35-labeled AKT1, synbody on magnetic bead via biotin
Procedure: as §1

AKT1 [10] = molecular target: T1, AKT1; test: method not stated (Table 4)
[11] = Table 2, synbodies constructed from a lysine scaffold

- KD (nM) (AKT1 [1]; Table 4, synbodies constructed from mutant peptides on lysine scaffold): n.b.
Molecule: AWKVVPQRQIRHAYNRYGSGKCFRGWAHIFFGPHVIYRGGSG [m3-Akt26-23 KC]

- cross-reactivity with AKT2 (AKT2 [2]): little cross-reactivity
- cross-reactivity with AKT3 (AKT3 [3]): little cross-reactivity
Molecule: CC[C@H](C)[C@H](NC(=O)[C@H](Cc1c[nH]cn1)NC(=O)[C@H](C)NC(=O)[C@H](Cc1c[nH]c2ccccc12)NC(=O)CNC(=O)[C@H](CCCNC(=N)N)NC(=O)[C@@H](N)Cc1ccccc1)C(=O)N[C@@H](Cc1ccccc1)C(=O)N[C@@H](Cc1ccccc1)C(=O)NCC(=O)N1CCC[C@H]1C(=O)N[C@@H](Cc1c[nH]cn1)C(=O)N[C@H](C(=O)N[C@H](C(=O)N[C@@H](Cc1ccc(O)cc1)C(=O)N[C@@H](CCCNC(=N)N)C(=O)NCC(=O)NCC(=O)N[C@@H](CO)C(=O)NCC(=O)NCCCC[C@H](NC(=O)CNC(=O)[C@H](CO)NC(=O)CNC(=O)[C@H](Cc1ccc(O)cc1)NC(=O)[C@H](CCCNC(=N)N)NC(=O)[C@H](CC(N)=O)NC(=O)[C@H](Cc1ccc(O)cc1)NC(=O)[C@H](C)NC(=O)[C@H](Cc1c[nH]cn1)NC(=O)[C@H](CCCNC(=N)N)NC(=O)[C@@H](NC(=O)[C@H](CCC(N)=O)NC(=O)[C@H](CCCNC(=N)N)NC(=O)[C@H](CCC(N)=O)NC(=O)[C@@H]1CCCN1C(=O)[C@@H](NC(=O)[C@@H](NC(=O)[C@H](CCCCN)NC(=O)[C@H](Cc1c[nH]cn1)NC(=O)[C@H](C)N)C(C)C)C(C)C)[C@@H](C)CC)C(=O)N[C@@H](CCCCNC(=O)CCCC[C@@H]1SC[C@@H]2NC(=O)N[C@@H]21)C(N)=O)[C@@H](C)CC)C(C)C [lead synbody]

- KD (nM) (AKT1 [1]; [11]): n.b.
Molecule: AHKVVPQRQIRHAYNRYGSGKCFRGWAHIFFGPHVIYRGGSG(oct) (AHKVVPQRQIRHAYNRYGSGKCFRGWAHIFFGPHVIYRGGSG-oct; not fully specified; printed as AHKVVPQRQIRHAYNRYGSGKCFRGWAHIFFGPHVIYRGGSG(oct); also: branched on Lys21 side chain (linear writing)) [Akt26-23(Oct)KC]

- Kd (AKT1 [1]; [11]): 4 nM
Molecule: CC[C@H](C)[C@H](NC(=O)[C@H](Cc1c[nH]cn1)NC(=O)[C@H](C)NC(=O)[C@H](Cc1c[nH]c2ccccc12)NC(=O)CNC(=O)[C@H](CCCNC(=N)N)NC(=O)[C@@H](N)Cc1ccccc1)C(=O)N[C@@H](Cc1ccccc1)C(=O)N[C@@H](Cc1ccccc1)C(=O)NCC(=O)N1CCC[C@H]1C(=O)N[C@@H](Cc1c[nH]cn1)C(=O)N[C@H](C(=O)N[C@H](C(=O)N[C@@H](Cc1ccc(O)cc1)C(=O)N[C@@H](CCCNC(=N)N)C(=O)NCC(=O)NCC(=O)N[C@@H](CO)C(=O)NCC(=O)NCCCC[C@H](NC(=O)CNC(=O)[C@H](CO)NC(=O)CNC(=O)[C@H](Cc1ccc(O)cc1)NC(=O)[C@H](CCCNC(=N)N)NC(=O)[C@H](CC(N)=O)NC(=O)[C@H](Cc1ccc(O)cc1)NC(=O)[C@H](C)NC(=O)[C@H](Cc1c[nH]cn1)NC(=O)[C@H](CCCNC(=N)N)NC(=O)[C@@H](NC(=O)[C@H](CCC(N)=O)NC(=O)[C@H](CCCNC(=N)N)NC(=O)[C@H](CCC(N)=O)NC(=O)[C@@H]1CCCN1C(=O)[C@@H](NC(=O)[C@@H](NC(=O)[C@H](CCCCN)NC(=O)[C@H](Cc1c[nH]cn1)NC(=O)[C@H](C)N)C(C)C)C(C)C)[C@@H](C)CC)C(=O)N[C@@H](CSSC(C)(C)C)C(N)=O)[C@@H](C)CC)C(C)C [Akt26-23KC]

- KD (nM) (AKT1 [1]; [11]): n.b.
Molecule: AHKVVPQRQIRHAYNRYGSG(oct)KCFRGWAHIFFGPHVIYRGGSG(oct) (AHKVVPQRQIRHAYNRYGSG[oct]KCFRGWAHIFFGPHVIYRGGSG-oct; not fully specified; printed as AHKVVPQRQIRHAYNRYGSG(oct)KCFRGWAHIFFGPHVIYRGGSG(oct); numbers in words are those of the source; also: branched on Lys21 side chain (linear writing)) [Akt26-(Oct)-23(Oct)KC]

- Kd (AKT1 [4]): 3 nM
B1: Akt26-23(hex)KC (designed binder)
chain 1: AHKVVPQRQIRHAYNRYGSGKC(StBu)
chain 2: FRGWAHIFFGPHVIYRGGSG
modifications: not fully specified (C-terminus); also: linker at chain A 21 to a chain's C-terminus via hex
notes: Branched molecule

- Kd (AKT1 [4]): 6 nM
B2: Akt26(Oct)-23KC (designed binder)
chain 1: AHKVVPQRQIRHAYNRYGSG[Oct]KC(StBu)
chain 2: FRGWAHIFFGPHVIYRGGSG
modifications: numbers in words are those of the source; also: bond at chain A 21 to a chain's C-terminus
notes: Branched molecule; They shift if the listing holds a placeholder for the spacer

- Kd (AKT1 [4]): 4 nM
B3: Akt26-23KKbiotin (designed binder)
chain 1: AHKVVPQRQIRHAYNRYGSGKK(Biotin)
chain 2: FRGWAHIFFGPHVIYRGGSG
modifications: also: bond at chain A 21 to a chain's C-terminus
notes: I split it into two chains; The name runs over rows r11 and r12; also called synbody 5

- Kd (AKT1 [5]): 1.49 nM
- binding result (AKT2 [6]): binds
- koff (AKT1 [7]): 0.000295 s⁻¹
- binding result (AKT3 [8]): binds
- Kd (AKT1 [9]): 4.9 nM
B4: lead synbody (Akt26 and Akt23 on a lysine linker, second lysine with biotin) (designed binder)
chain 1: AHKVVPQRQIRHAYNRYGSGKK
chain 2: FRGWAHIFFGPHVIYRGGSG
modifications: not fully specified (some residues); also: bond at chain A 21 to a chain's C-terminus
notes: also called the synbody; first generation synbody

- Kd (AKT1 [10]): 5 nM
B5: m2-Akt26-23 KC (designed binder)
chain 1: AHKVVYQRQIRFAYNRYGSGKC
chain 2: FRGWAHIFFGPHVIYRGGSG
modifications: also: bond at chain A 21 to a chain's C-terminus
notes: Mutant peptide on a lysine scaffold; Branched molecule, which I split into two chains

- Kd (AKT1 [10]): 5 nM
B6: m4-Akt26-23 KC (designed binder)
chain 1: AHKVVPQRWIRHAYNRYGSGKC
chain 2: FRGWAHIFFGPHVIYRGGSG
modifications: also: bond at chain A 21 to a chain's C-terminus
notes: as for B5

- Kd (AKT1 [10]): ~10 nM
B7: m6-Akt26-23 KC (designed binder)
chain 1: AWKVVPQRWIRYAYNRYGSGKC
chain 2: FRGWAHIFFGPHVIYRGGSG
modifications: also: bond at chain A 21 to a chain's C-terminus
notes: as for B5

- Kd (AKT1 [10]): 15 nM
B8: m1-Akt26-23 KC (designed binder)
chain 1: AHKVVPQRQMRHAYSRYGSGKC
chain 2: FRGWAHIFFGPHVIYRGGSG
modifications: also: bond at chain A 21 to a chain's C-terminus
notes: Mutant peptide on a lysine scaffold

- Kd (AKT1 [10]): 8 nM
B9: m5-Akt26-23 KC (designed binder)
chain 1: AWKVVPQRWIRHAYNRYGSGKC
chain 2: FRGWAHIFFGPHVIYRGGSG
modifications: also: bond at chain A 21 to a chain's C-terminus
notes: as for B5
